Measured values as given in patent publication US20250262210A1 (TRUSTEES OF COLUMBIA UNIVERSITY IN THE CITY OF NEW YORK, published 2025).

Key:
Assay in all cases: IP/MS, LZTR1 R810W-FLAG, U87
DIP2B = DIP2B (human, UniProt Q9P265 1-1576)
In short: (§1)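 Read-out: spectral counts from LC-MS/MS (Orbitrap Fusion) after MaxQuant identification. Variable modifications were Met oxidation, protein N-terminal acetylation and N/Q deamidation.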

ELP1 = molecular target: T1, ELP1 (human, UniProt O95163 1-1332)
T1 sequence (looked up): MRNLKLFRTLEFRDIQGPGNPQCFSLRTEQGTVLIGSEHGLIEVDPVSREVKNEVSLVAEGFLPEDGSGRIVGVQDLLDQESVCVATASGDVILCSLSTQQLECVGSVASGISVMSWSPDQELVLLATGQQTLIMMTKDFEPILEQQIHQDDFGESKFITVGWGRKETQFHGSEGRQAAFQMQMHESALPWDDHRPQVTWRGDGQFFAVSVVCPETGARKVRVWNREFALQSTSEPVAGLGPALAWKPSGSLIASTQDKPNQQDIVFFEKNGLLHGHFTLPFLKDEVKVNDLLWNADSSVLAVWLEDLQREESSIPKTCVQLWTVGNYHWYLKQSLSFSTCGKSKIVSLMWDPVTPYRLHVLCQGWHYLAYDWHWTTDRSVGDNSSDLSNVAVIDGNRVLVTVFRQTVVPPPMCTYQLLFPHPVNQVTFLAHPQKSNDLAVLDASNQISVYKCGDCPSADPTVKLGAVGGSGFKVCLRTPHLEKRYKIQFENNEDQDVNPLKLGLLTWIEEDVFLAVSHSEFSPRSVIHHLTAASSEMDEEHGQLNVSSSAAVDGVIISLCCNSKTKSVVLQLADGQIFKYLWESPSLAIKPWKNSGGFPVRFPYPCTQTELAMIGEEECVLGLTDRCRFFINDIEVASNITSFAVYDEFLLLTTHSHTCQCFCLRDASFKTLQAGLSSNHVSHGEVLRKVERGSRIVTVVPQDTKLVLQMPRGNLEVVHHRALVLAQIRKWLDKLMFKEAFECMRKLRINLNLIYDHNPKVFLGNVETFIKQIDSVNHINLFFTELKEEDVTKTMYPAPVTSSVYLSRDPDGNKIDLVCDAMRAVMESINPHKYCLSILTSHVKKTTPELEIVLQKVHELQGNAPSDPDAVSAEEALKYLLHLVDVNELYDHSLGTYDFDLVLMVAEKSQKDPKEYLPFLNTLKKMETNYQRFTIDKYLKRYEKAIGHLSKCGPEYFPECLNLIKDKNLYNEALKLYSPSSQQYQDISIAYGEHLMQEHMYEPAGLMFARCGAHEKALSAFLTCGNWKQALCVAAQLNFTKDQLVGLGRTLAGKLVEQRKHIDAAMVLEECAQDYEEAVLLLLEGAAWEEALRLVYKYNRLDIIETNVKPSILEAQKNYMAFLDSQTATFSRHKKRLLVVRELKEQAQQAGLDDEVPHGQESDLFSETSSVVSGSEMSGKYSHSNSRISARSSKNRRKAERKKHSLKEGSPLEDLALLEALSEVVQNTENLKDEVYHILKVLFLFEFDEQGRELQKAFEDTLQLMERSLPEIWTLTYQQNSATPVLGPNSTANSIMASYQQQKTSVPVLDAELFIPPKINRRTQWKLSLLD
In short: as §1

VPS13A = VPS13A (human, UniProt Q96RL7 1-3174, limits assumed)
In short: as §1

EPG5 = EPG5 (human, UniProt Q9HCE0 1-2579, limits assumed)
Chain of EPG5 (Q9HCE0 whole entry): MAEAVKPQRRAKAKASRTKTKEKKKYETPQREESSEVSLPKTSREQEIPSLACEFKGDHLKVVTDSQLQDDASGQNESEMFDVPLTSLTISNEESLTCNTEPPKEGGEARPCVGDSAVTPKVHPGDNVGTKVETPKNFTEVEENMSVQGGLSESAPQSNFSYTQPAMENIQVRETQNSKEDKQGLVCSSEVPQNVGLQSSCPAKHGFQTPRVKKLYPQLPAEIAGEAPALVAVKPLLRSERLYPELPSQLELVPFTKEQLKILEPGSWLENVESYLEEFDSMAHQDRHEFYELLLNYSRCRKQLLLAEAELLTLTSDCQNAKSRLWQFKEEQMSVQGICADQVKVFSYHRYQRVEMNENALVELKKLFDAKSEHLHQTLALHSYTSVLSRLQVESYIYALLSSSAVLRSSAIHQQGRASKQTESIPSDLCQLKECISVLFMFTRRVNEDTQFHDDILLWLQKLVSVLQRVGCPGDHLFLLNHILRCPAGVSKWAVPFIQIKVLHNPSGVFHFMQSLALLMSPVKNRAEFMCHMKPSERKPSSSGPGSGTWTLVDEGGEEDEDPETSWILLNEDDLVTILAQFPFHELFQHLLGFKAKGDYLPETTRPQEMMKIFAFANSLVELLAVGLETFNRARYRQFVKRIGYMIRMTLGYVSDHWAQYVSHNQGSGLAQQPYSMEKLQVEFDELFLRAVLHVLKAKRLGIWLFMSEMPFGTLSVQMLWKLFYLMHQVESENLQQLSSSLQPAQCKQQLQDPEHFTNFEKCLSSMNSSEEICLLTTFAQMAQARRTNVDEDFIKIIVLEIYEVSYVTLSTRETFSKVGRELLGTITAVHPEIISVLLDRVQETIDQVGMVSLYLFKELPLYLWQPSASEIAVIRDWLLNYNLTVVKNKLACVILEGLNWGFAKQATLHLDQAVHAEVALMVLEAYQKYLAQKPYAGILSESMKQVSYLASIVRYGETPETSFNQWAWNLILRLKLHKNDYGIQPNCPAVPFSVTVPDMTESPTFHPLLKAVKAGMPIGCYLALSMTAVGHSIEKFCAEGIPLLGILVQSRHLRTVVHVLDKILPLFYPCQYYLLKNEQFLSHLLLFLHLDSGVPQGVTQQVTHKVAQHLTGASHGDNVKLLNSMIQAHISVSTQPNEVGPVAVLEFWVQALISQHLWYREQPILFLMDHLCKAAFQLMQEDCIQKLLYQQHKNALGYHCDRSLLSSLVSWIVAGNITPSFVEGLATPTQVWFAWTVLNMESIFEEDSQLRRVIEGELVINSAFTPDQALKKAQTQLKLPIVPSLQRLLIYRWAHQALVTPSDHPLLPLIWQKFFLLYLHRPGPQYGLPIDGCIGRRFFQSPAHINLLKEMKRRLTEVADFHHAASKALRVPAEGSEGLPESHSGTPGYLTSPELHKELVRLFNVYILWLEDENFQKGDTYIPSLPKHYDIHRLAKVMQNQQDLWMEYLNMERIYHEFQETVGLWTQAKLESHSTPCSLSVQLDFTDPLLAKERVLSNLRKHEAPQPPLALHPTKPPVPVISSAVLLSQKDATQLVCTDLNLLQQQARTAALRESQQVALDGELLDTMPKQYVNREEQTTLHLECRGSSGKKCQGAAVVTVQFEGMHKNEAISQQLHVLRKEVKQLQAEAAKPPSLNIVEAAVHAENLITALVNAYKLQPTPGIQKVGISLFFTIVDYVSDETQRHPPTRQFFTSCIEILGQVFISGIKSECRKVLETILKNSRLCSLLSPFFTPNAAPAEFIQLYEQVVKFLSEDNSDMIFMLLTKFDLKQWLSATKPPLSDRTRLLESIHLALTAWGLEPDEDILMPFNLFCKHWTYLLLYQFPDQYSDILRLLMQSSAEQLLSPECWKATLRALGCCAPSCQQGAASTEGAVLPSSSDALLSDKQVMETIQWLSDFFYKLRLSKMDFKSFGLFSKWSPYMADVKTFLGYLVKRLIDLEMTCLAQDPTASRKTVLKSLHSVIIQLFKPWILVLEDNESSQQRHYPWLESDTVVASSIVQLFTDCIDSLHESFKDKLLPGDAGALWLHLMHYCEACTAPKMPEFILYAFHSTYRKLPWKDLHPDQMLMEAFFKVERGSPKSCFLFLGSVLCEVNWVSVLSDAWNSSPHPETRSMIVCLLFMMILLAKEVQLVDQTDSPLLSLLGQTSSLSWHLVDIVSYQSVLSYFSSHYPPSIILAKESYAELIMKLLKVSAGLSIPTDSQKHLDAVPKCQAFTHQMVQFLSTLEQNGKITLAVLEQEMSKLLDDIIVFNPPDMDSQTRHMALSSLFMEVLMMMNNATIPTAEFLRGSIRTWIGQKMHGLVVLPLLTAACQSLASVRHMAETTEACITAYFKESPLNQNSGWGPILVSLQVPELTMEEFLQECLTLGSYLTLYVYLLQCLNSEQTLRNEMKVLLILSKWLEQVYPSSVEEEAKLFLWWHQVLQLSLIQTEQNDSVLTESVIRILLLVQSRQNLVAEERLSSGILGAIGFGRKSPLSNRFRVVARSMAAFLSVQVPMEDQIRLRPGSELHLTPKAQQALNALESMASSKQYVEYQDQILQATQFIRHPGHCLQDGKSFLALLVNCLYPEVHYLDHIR
In short: as §1

SPG11 = SPG11 (human, UniProt Q96JI7 1-2443, limits assumed)
Chain of SPG11 (Q96JI7 whole entry): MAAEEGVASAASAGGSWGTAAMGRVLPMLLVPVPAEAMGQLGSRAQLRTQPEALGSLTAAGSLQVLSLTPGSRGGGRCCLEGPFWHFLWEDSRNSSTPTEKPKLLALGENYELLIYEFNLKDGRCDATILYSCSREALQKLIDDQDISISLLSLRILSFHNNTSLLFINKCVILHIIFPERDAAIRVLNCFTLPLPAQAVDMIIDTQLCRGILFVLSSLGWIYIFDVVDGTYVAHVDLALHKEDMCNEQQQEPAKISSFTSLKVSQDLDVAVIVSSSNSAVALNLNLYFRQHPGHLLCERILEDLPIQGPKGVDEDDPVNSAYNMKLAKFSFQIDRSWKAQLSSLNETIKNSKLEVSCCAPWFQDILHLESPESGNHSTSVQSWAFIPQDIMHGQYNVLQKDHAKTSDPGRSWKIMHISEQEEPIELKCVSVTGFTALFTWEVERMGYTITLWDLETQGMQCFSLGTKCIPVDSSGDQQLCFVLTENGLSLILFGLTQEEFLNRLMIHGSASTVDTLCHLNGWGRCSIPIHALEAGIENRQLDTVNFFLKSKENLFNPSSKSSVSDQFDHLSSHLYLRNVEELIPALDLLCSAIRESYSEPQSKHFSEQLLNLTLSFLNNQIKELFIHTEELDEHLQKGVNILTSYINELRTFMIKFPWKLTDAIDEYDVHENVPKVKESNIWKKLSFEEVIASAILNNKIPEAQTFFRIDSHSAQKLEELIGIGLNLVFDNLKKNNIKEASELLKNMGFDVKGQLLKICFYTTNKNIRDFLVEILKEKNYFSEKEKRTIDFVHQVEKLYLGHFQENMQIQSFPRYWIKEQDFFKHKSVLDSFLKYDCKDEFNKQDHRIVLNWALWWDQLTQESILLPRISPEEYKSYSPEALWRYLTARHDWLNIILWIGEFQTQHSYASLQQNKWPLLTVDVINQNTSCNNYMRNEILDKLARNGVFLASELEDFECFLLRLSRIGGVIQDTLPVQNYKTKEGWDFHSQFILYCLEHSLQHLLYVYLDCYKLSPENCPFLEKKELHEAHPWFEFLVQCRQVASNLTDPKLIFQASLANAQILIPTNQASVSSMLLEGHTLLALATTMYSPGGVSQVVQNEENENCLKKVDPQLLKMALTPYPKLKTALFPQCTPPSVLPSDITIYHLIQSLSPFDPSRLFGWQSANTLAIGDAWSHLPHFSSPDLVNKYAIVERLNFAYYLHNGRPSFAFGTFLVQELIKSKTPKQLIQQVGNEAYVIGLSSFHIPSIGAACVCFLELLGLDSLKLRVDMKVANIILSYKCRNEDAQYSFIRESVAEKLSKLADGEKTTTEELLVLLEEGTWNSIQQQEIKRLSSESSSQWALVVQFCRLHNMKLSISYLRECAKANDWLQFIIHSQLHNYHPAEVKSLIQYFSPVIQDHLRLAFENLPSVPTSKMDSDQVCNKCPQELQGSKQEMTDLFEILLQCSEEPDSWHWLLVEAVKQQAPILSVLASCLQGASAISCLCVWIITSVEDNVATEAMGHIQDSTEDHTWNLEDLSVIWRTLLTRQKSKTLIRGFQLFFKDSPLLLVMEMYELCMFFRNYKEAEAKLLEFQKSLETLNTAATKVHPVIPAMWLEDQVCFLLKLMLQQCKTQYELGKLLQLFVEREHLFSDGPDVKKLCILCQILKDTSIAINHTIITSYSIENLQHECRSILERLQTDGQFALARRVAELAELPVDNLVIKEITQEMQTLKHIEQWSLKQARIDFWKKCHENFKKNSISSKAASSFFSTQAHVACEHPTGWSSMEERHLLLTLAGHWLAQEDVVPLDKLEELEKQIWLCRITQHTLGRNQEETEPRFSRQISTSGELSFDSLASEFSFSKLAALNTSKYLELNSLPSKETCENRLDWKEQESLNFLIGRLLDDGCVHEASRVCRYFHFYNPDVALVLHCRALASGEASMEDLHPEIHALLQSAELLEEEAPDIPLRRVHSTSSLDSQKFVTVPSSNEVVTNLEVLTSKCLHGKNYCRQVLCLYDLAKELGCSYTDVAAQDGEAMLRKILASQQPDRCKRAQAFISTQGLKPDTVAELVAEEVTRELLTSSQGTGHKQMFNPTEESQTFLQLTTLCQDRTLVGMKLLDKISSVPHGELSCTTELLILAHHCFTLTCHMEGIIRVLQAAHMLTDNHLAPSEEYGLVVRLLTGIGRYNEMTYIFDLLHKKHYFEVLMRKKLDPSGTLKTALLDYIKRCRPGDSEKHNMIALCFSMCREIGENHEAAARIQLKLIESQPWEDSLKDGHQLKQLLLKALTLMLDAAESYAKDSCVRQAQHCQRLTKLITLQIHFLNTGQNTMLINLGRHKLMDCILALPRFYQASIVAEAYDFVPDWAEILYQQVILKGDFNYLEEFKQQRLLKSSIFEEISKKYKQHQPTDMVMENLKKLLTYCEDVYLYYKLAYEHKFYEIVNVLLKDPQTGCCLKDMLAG
In short: as §1

Measured: binding result

B1: LZTR1 R810W-FLAG (other, human, UniProt Q8N653 1-840, looked up)
chain: MAGPGSTGGQIGAAALAGGARSKVAPSVDFDHSCSDSVEYLTLNFGPFETVHRWRRLPPCDEFVGARRSKHTVVAYKDAIYVFGGDNGKTMLNDLLRFDVKDCSWCRAFTTGTPPAPRYHHSAVVYGSSMFVFGGYTGDIYSNSNLKNKNDLFEYKFATGQWTEWKIEGRLPVARSAHGATVYSDKLWIFAGYDGNARLNDMWTIGLQDRELTCWEEVAQSGEIPPSCCNFPVAVCRDKMFVFSGQSGAKITNNLFQFEFKDKTWTRIPTEHLLRGSPPPPQRRYGHTMVAFDRHLYVFGGAADNTLPNELHCYDVDFQTWEVVQPSSDSEVGGAEVPERACASEEVPTLTYEERVGFKKSRDVFGLDFGTTSAKQPTQPASELPSGRLFHAAAVISDAMYIFGGTVDNNIRSGEMYRFQFSCYPKCTLHEDYGRLWESRQFCDVEFVLGEKEECVQGHVAIVTARSRWLRRKITQARERLAQKLEQEAAPVPREAPGVAAGGARPPLLHVAIREAEARPFEVLMQFLYTDKIKYPRKGHVEDVLLIMDVYKLALSFQLCRLEQLCRQYIEASVDLQNVLVVCESAARLQLSQLKEHCLNFVVKESHFNQVIMMKEFERLSSPLIVEIVRRKQQPPPRTPLDQPVDIGTSLIQDMKAYLEGAGAEFCDITLLLDGHPRPAHKAILAARSSYFEAMFRSFMPEDGQVNISIGEMVPSRQAFESMLRYIYYGEVNMPPEDSLYLFAAPYYYGFYNNRLQAYCKQNLEMNVTVQNVLQILEAADKTQALDMKRHCLHIIVHQFTKVSKLPTLWSLSQQLLLDIIDSLASHISDKQCAELGADI
notes: Stably expressed in U87 cells by lentivirus; also called LZTR1-FLAG-R810W; LZTR1 RW; not shown: FLAG tag
binds: DIP2B | ELP1 | VPS13A | EPG5 | SPG11
